This note sets out measurements from PMC6404975.

Data set [1] addresses insulin (bovine pancreas) (Bos taurus, UniProt P01317;P01317 25-54;85-105). Nature of the data set: electrochemical aptamer-based sensor.
The next data set addresses glucagon (UniProt P01275 53-81). Nature of the data set: electrochemical aptamer-based sensor.

insulin (bovine pancreas), sequence (P01317 25-54, chain 1 of 2): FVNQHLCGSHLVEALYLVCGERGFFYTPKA
insulin (bovine pancreas), sequence (P01317 85-105, chain 2 of 2): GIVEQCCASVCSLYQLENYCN
glucagon, sequence (P01275 53-81): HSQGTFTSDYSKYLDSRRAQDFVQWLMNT

B1: Insulin-End (IGA3) (structured_DNA)
DNA: AAAAGGTGGTGGGGGGGGTTGGTAGGGTGTCTTCT
modifications: 5' thiol-C6 (immobilised on gold); 3' methylene blue
The term Kd denotes the concentration at which binding is half-saturated. A high value points to lower affinity. With B1, the Kd in data set [1] came out at 240 ± 65 nM. The binding result in the data set with glucagon is reported as “no binding”.
